Test system: MS2 coat protein
Test: apparent KD of MS2 coat protein; designed switch direction (-1 OFF switch, 1 ON switch): -1; higher = weaker reporter binding
In short: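 The buffer was Tris-HCl pH 7.5 with KCl, MgCl2, BSA, DTT, tRNA and Tween-20. In it, SNAP-549-labelled MS2 coat protein was titrated in doubling steps from 0.7 or 1.5 nM to 3 µM over chip-bound RNA switches transcribed by stalled E. coli RNA polymerase on Illumina chips. Apparent KD is the per-design median over clusters of curve fits to normalised fluorescence.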

[1] = input ligand: microRNA oligo, concentration not stated
[2] = Eterna round: R95, input ligand: microRNA oligo, concentration not stated
[3] = Eterna round: R95, input ligand: FMN 200 uM
[4] = Eterna round: R95, input ligand: none

Row | Sequence | apparent KD of MS2 coat protein (input ligand: FMN 200 uM) | apparent KD of MS2 coat protein [1] | apparent KD of MS2 coat protein (input ligand: none) | apparent KD of MS2 coat protein [2] | apparent KD of MS2 coat protein [3] | apparent KD of MS2 coat protein [4]
1 | GAUUUAGAGCAGGAUAUCAUAGAAUUAUAUGAAUGAGAAGGGCUCACAUGAGGAUCACCCAUGUGGUCCUAGAU [JL Dibiri mod 22] (Eterna round: R96, puzzle: Exclusion 6) | 235 nM | 21.7 nM | 25.4 nM | – | – | –
2 | UGUAGAGUGGUAGGAUAUCCGUCUGUUUCAGUCGGAGAAGGACCACAGUCACUGGGUCCUUAUAUGGGUGACCAUGUAUCUACU [pwkr exNG1 F6.5] (Eterna round: R96, puzzle: Exclusion NG 1) | 652 nM | 303 nM | 369 nM | – | – | –
3 | GUGCUAUAGGAAGGAUAUACUUCAUUGUUUAAACAUGAGGAUCACCCAUGUAACCUUAUGUAUGUGUAGAAGGUCCAUAGCUUA (Eterna round: R96, puzzle: Exclusion NG 2) | 56.9 nM | 25.1 nM | 30.2 nM | – | – | –
4 | GCGCCAUCGUGAGAUGGCGUACCGACAUGAGGAUCACCCAUGUAGGAUAUCGAUUGCUUUGCAGUCGAGAAGGGCAUGAUAAGU [JL ENG3 3.77] (Eterna round: R96, puzzle: Exclusion NG 3) | 20.9 nM | 13.4 nM | 21.4 nM | – | – | –
5 | AUGUACCGGUGAGGAUAUUUUUAAUAGAACUUUAUGAUAUACAUGAGGAUCACCCAUGUUACUUUAAAGAAGGCAUCGGAUUAA [Mat - Exclusion NG 2 - Mod of JL - D85] (Eterna round: R96, puzzle: Exclusion NG 2) | – | 13.8 nM | – | – | – | –
6 | GCACGGUAAUUCCAUAAAACCACAUGAGGAUCACCCAUGUCUCAGGAUAUGGUCUGGAUUACAGGCCAGAAGGGAGAGCCGUGC [Eli exng3 - 060] (Eterna round: R96, puzzle: Exclusion NG 3) | 10.4 nM | 8.88 nM | 13.3 nM | – | – | –
7 | GGCAAACAUGAGGAUCACCCAUGUAAGGAUAUUAGGCGAUCGUCGAAAGACGAUAGCCUGAGAAGGUGCAUGCC [Eli x1 4.15] (Eterna round: R97, puzzle: Exclusion 1) | 38.8 nM | – | 22.4 nM | – | – | –
8 | UUUUAACAUGAGGAUCACCCAUGUGAGGAUAUCGAAAUUUAUAUUUAUAUUUAUUAAUCGAGAAGGCACAUUUU [JMF 100] (puzzle: Exclusion 1) | – | – | – | 121 nM | – | –
9 | AAAUACAAGCAAAGAUCUUACAUGAGGAUCACCCAUGUGCUCGUUUUAUAAAGUACUAUCACGAAAGUGAUAGUACA [Sensor 3, v1 - 31] (puzzle: Sensor v3, turn-off variant 1) | – | – | – | 93.4 nM | 25 nM | 28.3 nM
10 | UUGACGGCAGGAUAUACAUGAGGAUCACCCAUGUAAAUUUUUCGUUUAACUUGAAUGUGUAGAAGGGCCAUGUU [Ex3 #72] (Eterna round: R97, puzzle: Exclusion 3) | 18.2 nM | – | 19 nM | – | – | –
11 | UUGCUACCUUGGUGCUCUACAAGCUUUUUGCUCGUUUUAACAUGAGGAUCACCCAUGUCUAGUGGAUCUGAUCGGGU [JL ViennaUCT Isreen mod 2] (puzzle: Sensor v3, turn-off variant 2) | – | – | – | 212 nM | 91.3 nM | 97.9 nM
12 | GGAGGAAAGAUAGGAUAUUCGAGGAAGGUGGUGAUAGAGACAUGAGGAUCACCCAUGUAAGGAGGGAAGAAGGGUCGAGGAGGA [AK ExNG2-V2-7] (Eterna round: R96, puzzle: Exclusion NG 2) | 411 nM | 193 nM | 142 nM | – | – | –
13 | AAGAAACAUGAGGAUCACCCAUGUGAGGAUAUGGCCCGCCCGGCGUGAGCUGGUUUAAUCAGAAGGCACAAAGG [salish99_ex1_r4_014] (Eterna round: R97, puzzle: Exclusion 1) | 44.8 nM | – | 38.1 nM | – | – | –
14 | GUAAUGAUUGUGAGGAUAUUUCAUAGAUAGAUAUUAGAGAAGGUACAUGAGGAUCACCCAUGUGUGAUCAUACA [Brourd's EX4 #73] (Eterna round: R97, puzzle: Brourd's mod of Exclusion 4) | 672 nM | – | 1050 nM | – | – | –
15 | CUCGUGUAAGGAUAUGCGAGCCGCGGAAAUACACCGCGGAGGUAGAAGGUACAUGAGGAUCACCCAUGUAAAAC [Edisora] (puzzle: Exclusion 4) | – | – | – | 26.6 nM | – | –
16 | UAAUUGUGAGGAUAUUCGUUUUUCACGGAGACGUGAAGAACGGAGAAGGCACAUGAGGAUCACCCAUGUUCCUU [Mat - Exclusion 4 - JL Mod - D15] (Eterna round: R97, puzzle: Exclusion 4) | 89.3 nM | – | 19.5 nM | – | – | –
17 | UGUCAGAUGGUAGGAUAUCCAUAUCGCGUGUCCCUUUCCUAACAUGAGGAUCACCCAUGUCGGUGGGAGAAGGGCCGUAUGGUG [salish99_ExNG02_R04_035] (Eterna round: R96, puzzle: Exclusion NG 2) | – | 9.49 nM | – | – | – | –

Row | Sequence | apparent KD of MS2 coat protein (input ligand: FMN 200 uM) | apparent KD of MS2 coat protein [1] | apparent KD of MS2 coat protein (input ligand: none) | apparent KD of MS2 coat protein [2] | apparent KD of MS2 coat protein [3] | apparent KD of MS2 coat protein [4]
18 | UGUACUAACACGAUAGUGUUAGUACUAUAAGCUUGUGUUACAUGAGGAUCACCCAUGUCCUCAUAGGCUCGUCUUAU [Mat - Sensor v3 - Turn-off var 2 - D87] (puzzle: Sensor v3, turn-off variant 2) | – | – | – | 47.5 nM | 646 nM | 446 nM
19 | UGGUGUGAAGGAUAUACAUGAGGAUCACCCAUGUAUGAGGUGGAGGUUGAGGUGGAGGGUAGAAGGUCAGGUGG [JR_Exclusion3_Sub012] (puzzle: Exclusion 3) | – | – | – | 26.8 nM | – | –
20 | GGUGGCUGCGUGAGACAUGAGGAUCACCCAUGUUACCGAACAAAGGAUAUAGAAGCACACAGCUACUAGAAGGUUGAAAAGAAA [Requen] (Eterna round: R96, puzzle: Exclusion NG 3) | 12.2 nM | 16.2 nM | 19.6 nM | – | – | –
21 | CCCGAACAUGAGGAUCACCCAUGUCAGGAUAUAUUGCAGUGCAGAGCGCGUGCUAAGGAUAGAAGGGACAUGAA [Eternabot (L2) Solution 62] (Eterna round: R97, puzzle: Exclusion 1) | 31.4 nM | – | 29 nM | – | – | –
22 | GGAAGGAAGGAACAAGUUAACAUGAGGAUCACCCAUGUUGACUUCAUGUGCACGCAAAGCGUGCAAGCUCGUCUUAU [AK-miRNA-r3-16] (Eterna round: R97, puzzle: Sensor, turn-off variant 1) | 18.3 nM | – | 17.3 nM | – | – | –
23 | AUCCUACAUGAGGAUCACCCAUGUCAGGAUAUCCAAGAAAUCUGGCCGUAUCGGCCAGGGAGAAGGGAUAUGGG [jl-ex1-4.64 ViennaUCT mod] (Eterna round: R97, puzzle: Exclusion 1) | 57.7 nM | – | 74.2 nM | – | – | –
24 | UUUUAACAUGAGGAUCACCCAUGUCAGGAUAUGCUAUUUUUUUUUUUUUUUUUUUUUUGCAGAAGGGACAUUUU [My solution] (puzzle: Exclusion 1) | – | – | – | 29.4 nM | 78.5 nM | 55.7 nM
25 | UCGAGGUCAGGAUAUACAUGAGGAUCACCCAUGUGGAAGUAAGGUAGGAGAAGAGUAGGUAGAAGGGACGAGGG [JR_Exclu3_Sub051] (puzzle: Exclusion 3) | – | – | – | 37.9 nM | 38.2 nM | 46.3 nM
26 | GCCACAGCAGGAUAUUCAAUAAUUCACAUGAGGAUCACCCAUGUCGAGCGAAAGCUCGAGGGAGAAGGGCUGUGGC [Mat - Exclusion 5 - Eli mod - D88] (puzzle: Exclusion 5) | – | – | – | 34.4 nM | – | –
27 | GUCUUACAUGAGGAUCACCCAUGUGAGGAUAUGGUUUCGCUGGCCGUAGCCAGUGGAACCAGAAGGCGCGUGAU [Mat - Exclusion 1 - JL Mod - D20] (Eterna round: R97, puzzle: Exclusion 1) | 73.1 nM | – | 72.8 nM | – | – | –
28 | ACGUAUAGAGGAUAUAGUGAAUAUUACAUGAGGAUCACCCAUGUUCUUCAAAGUAUAUUCCUAGAAGGCUAAUGAA [EX-5 Malc#11] (puzzle: Exclusion 5) | – | – | – | 148 nM | 537 nM | 171 nM
29 | AUUAUACAUGUAGGAUAUCUGCACGAUUAGUGCAGAGAAGGACAUGAGGAUCACCCAUGUAGAUCAAUAAUAAUUAAUUUAAUU [ENG1/6-B1] (Eterna round: R96, puzzle: Exclusion NG 1) | 500 nM | 122 nM | 156 nM | – | – | –
30 | CCAUCGUGUGUGAGGAUAUGCUGGACCUUGGUUCAGCAGAAGGCACAUGAGGAUCACCCAUGUGAAGACGGUGG [Mat - Exclusion 4 - JL Mod - D89] (puzzle: Brourd's mod of Exclusion 4) | – | – | – | 24.6 nM | 51.4 nM | 18.1 nM
31 | UAUAUGUCAGGAUAUUAGUAGUAAAUAAAUAAAAUUAUUACUGAGAAGGGACAUGAGGAUCACCCAUGUUCCUC [JR_Ex4_Sub001] (Eterna round: R97, puzzle: Exclusion 4) | 162 nM | – | 22.9 nM | – | – | –
32 | GUGUAGUGAGGAUAUCGUUGUUAGGAGGAGAAGGUAGGAGGCGAGAAGGCACAUGAGGAUCACCCAUGUAUGAG [JR_Exclu4_Sub063] (puzzle: Exclusion 4) | – | – | – | 23.5 nM | – | –
33 | AGAAGUAAAUAAGGAUAUCCAUGGGAGAGUGAAGGAGAAGGUAUAAUGUAUUCCAAUGUACCCACUAGGAGUACAAGAUGUUGA [Default title] (Eterna round: R96, puzzle: Exclusion NG 1) | 47.9 nM | 4.55 nM | 23.1 nM | – | – | –
34 | CUCCGCGCUGUCAGGAUAUCCAGGGCCUACCGGCCGGAGAAGGGACAUGAGGAUCACCCAUGUUCGGGUUAGCA [Eszaquus] (puzzle: Brourd's mod of Exclusion 4) | – | – | – | 13.3 nM | – | –

— the supplement of paper PMC9170038
